B1: Apoptosis-associated speck-like protein containing a CARD, residues 114 to 194; numbered along this chain, Q9ULZ3 (parent)
chain: FIDQHRAALIARVTNVEWLLDALYGKVLTDEQYQAVRAEPTNPSKMRKLFSFTPAWNWTCKDLLLQALRESQSYLVEDLER

± gives the uncertainty stated by the source.

The variants in this series derive from B1. In words: abundance fitness (aPCA) (normalised: wild type 0, dead -1); higher = more abundant; growth selection in yeast, the domain comes from the species named. The conditions noted are these: Homo sapiens.
Regarding FIDQHRAALIARVTNVEWLLDALYGKVLTDEQYQAVRAEPTNPSKMRKLFSFTPAWNWTPKDLLLQALRESQSYLVEDLER [C60P], the abundance fitness is -0.625 ± 0.11.

Take FIDQHRAALIARVTNVEWLLDALYGKVLTDEQYQAVRAEPTNPSKMRKLFSFTPAWNWTKKDLLLQALRESQSYLVEDLER [C60K]: the abundance fitness stood at 0.041 ± 0.11.

Consider FIDQHRAALIARMTNVEWLLDALYGKVLTDEQYQAVRAEPTNPSKMRKLFSFTPAWNWTCKDLLLQALRESQSYLVEDLER [V13M], for which the abundance fitness was -0.611 ± 0.11.

On to FIDQHRAALIARRTNVEWLLDALYGKVLTDEQYQAVRAEPTNPSKMRKLFSFTPAWNWTCKDLLLQALRESQSYLVEDLER [V13R], for which the abundance fitness is -0.851 ± 0.085.

FIDQHRAALIARVTNVEWLLDALYGKVLTDEQYQAVRAEPTNPSKMRKLFSFTPAWNWTCKDLLSQALRESQSYLVEDLER [L65S]: the abundance fitness is -0.512 ± 0.07.

As for FIDQHRAALIARVTNVEWLLDALYGKVLTDEQYQAVRAEPTNPSKMRKLFSFTPAWNWTCKDLLNQALRESQSYLVEDLER [L65N], the abundance fitness is -0.548 ± 0.21.

With FIDQHRAELIARVTNVEWLLDALYGKVLTDEQYQAVRAEPTNPSKMRKLFSFTPAWNWTCKDLLLQALRESQSYLVEDLER [A8E], the abundance fitness was 0.2 ± 0.072.

FIDQHRAALIARVTNVEWLLDALYGKVLTDEQYQAVRAEPTNPSKMRKLFSFTPAWNWPCKDLLLQALRESQSYLVEDLER [T59P]: the abundance fitness was -0.44 ± 0.071.

As to FIDQHRAALIARVTNVEWLLDALYGKVLTDEQYQAVRAEPTNPSKMRKLFSFTPAWNWVCKDLLLQALRESQSYLVEDLER [T59V], the abundance fitness was -0.128 ± 0.052.

Take FIDQHRAALIARVTNVEWLLDPLYGKVLTDEQYQAVRAEPTNPSKMRKLFSFTPAWNWTCKDLLLQALRESQSYLVEDLER [A22P]: the abundance fitness is -1 ± 0.2.

On to FIDQHRAALIARVTNVEWLLDTLYGKVLTDEQYQAVRAEPTNPSKMRKLFSFTPAWNWTCKDLLLQALRESQSYLVEDLER [A22T], for which the abundance fitness is -0.146 ± 0.073.

As for FIDQHRAALIARVTNVEWLLDGLYGKVLTDEQYQAVRAEPTNPSKMRKLFSFTPAWNWTCKDLLLQALRESQSYLVEDLER [A22G], the abundance fitness is -0.4 ± 0.056.

As for FIDQHRAALIARVTNVEWLLDALYGKVLTDEQYQAVRAEPTNPSKMRKLFNFTPAWNWTCKDLLLQALRESQSYLVEDLER [S51N], the abundance fitness was -0.806 ± 0.22.

For the variant FIDQHRAALIARVTNVEWLLDALYGKVLTDEQYQAVRAEPTNPSKMRKLFDFTPAWNWTCKDLLLQALRESQSYLVEDLER [S51D], the abundance fitness was -0.169 ± 0.095.

On to FIDQHRAALIARVCNVEWLLDALYGKVLTDEQYQAVRAEPTNPSKMRKLFSFTPAWNWTCKDLLLQALRESQSYLVEDLER [T14C], for which the abundance fitness is -0.656 ± 0.18.

In the case of FIDQHRAALIARVTNVEWLLDALYGKVLTDEQYQAVRAEPTNPSKMRKLFSFTPAWNWTCKALLLQALRESQSYLVEDLER [D62A], the abundance fitness was -0.083 ± 0.066.

Regarding FIDQHRAALIARVTNVEWLLDALYGKVLTDEQYQAVRAEPTNPSKMRKLFSFTPAWNWTCKNLLLQALRESQSYLVEDLER [D62N], the abundance fitness was -0.207 ± 0.16.

Take FIDQHRAALIARVTNVEWLLDALYGKVLTDEQYQAVRAERTNPSKMRKLFSFTPAWNWTCKDLLLQALRESQSYLVEDLER [P40R]: the abundance fitness is -0.167 ± 0.041.

On to FIDQHRAALIARVTNVEWLLDALYGKVLTDEQKQAVRAEPTNPSKMRKLFSFTPAWNWTCKDLLLQALRESQSYLVEDLER [Y33K], for which the abundance fitness is -0.342 ± 0.15.

Regarding FIDQHRAALIARVTNVEWLLDALYGKVLTDEQYQAVRAEPTNPSKMRKLFSFTPAWNWTCKDLLLVALRESQSYLVEDLER [Q66V], the abundance fitness is -0.481 ± 0.084.

For the variant FIDQHRAALIARVTNVEWLLDALYGKVLTDEQYQAVRAEPTNPSKMRKLFSFTPAWNWTCKDLLLLALRESQSYLVEDLER [Q66L], the abundance fitness is -0.6 ± 0.078.

FIDQHRAALIARVTNVEWLLDALYGKVLNDEQYQAVRAEPTNPSKMRKLFSFTPAWNWTCKDLLLQALRESQSYLVEDLER [T29N]: the abundance fitness is -0.338 ± 0.21.

Regarding FIDQHRAALIARVTNVEWLLDALYGKVLDDEQYQAVRAEPTNPSKMRKLFSFTPAWNWTCKDLLLQALRESQSYLVEDLER [T29D], the abundance fitness was -0.626 ± 0.39.

FIDQHRAALIARVTNVEWLLDALYGKVLTDEQYQAVRAEPTNPSKMRKLFSFTPAWNWTCKDLLLQALRESQSHLVEDLER [Y74H]: the abundance fitness stood at 0.027 ± 0.09.

Consider FIDQHRAALIARVTNVEWLLDALYGKVLTDEQYQAVRAEPTNPSKMRKLFSFTPAWNWTCKDLLLQQLRESQSYLVEDLER [A67Q], for which the abundance fitness is -0.711 ± 0.14.

On to FIDQHRAALIARVTNVEWLLDALYGKVLTDEQYQAVRAEPTNPSKMRKLFSFTPAWNWTCKDLLLQALFESQSYLVEDLER [R69F], for which the abundance fitness was -0.636 ± 0.27.

Take FIDQHRAALIARVTNVEWLLDALYGKVLTDEQYQAVRAEPTNPSKMRKLFSFTPAWNWTCKDLLLQALIESQSYLVEDLER [R69I]: the abundance fitness is -0.195 ± 0.13.

Regarding FIDQHRAALCARVTNVEWLLDALYGKVLTDEQYQAVRAEPTNPSKMRKLFSFTPAWNWTCKDLLLQALRESQSYLVEDLER [I10C], the abundance fitness is -0.628 ± 0.16.

Consider FIDQHRAALEARVTNVEWLLDALYGKVLTDEQYQAVRAEPTNPSKMRKLFSFTPAWNWTCKDLLLQALRESQSYLVEDLER [I10E], for which the abundance fitness was -0.594 ± 0.066.

Turning to FIDQHRAALIARVTNVEWLLMALYGKVLTDEQYQAVRAEPTNPSKMRKLFSFTPAWNWTCKDLLLQALRESQSYLVEDLER [D21M], the abundance fitness is -0.292 ± 0.092.

Consider FIDQHRAALIARVTNHEWLLDALYGKVLTDEQYQAVRAEPTNPSKMRKLFSFTPAWNWTCKDLLLQALRESQSYLVEDLER [V16H], for which the abundance fitness is -0.821 ± 0.22.

For FIDQHRAALIARVTNVEWLLDALYGKVLTDEQYQAVRAEPSNPSKMRKLFSFTPAWNWTCKDLLLQALRESQSYLVEDLER [T41S], the abundance fitness is -0.199 ± 0.057.

Turning to FIDQHRAALIARVTNVEWLLDALYGKVLTDEQYQAVRAEPTNPSKMRKLHSFTPAWNWTCKDLLLQALRESQSYLVEDLER [F50H], the abundance fitness was -0.948 ± 0.31.

For FIDQHRAALIARVTNVEWLLDALYGKVLTDEQYQAVRAEPTNPSKMRKLSSFTPAWNWTCKDLLLQALRESQSYLVEDLER [F50S], the abundance fitness is -0.822 ± 0.1.

For the origin of these results see the Human Domainome abundance scans (Beltran et al. 2025).
